Measured values: doi:10.1101/2022.06.10.495428

Key:
[1] = target: Influenza A/Zhejiang/DTID-ZJU01/2013 (H7N9) polymerase heterotrimer (influenza A/Zhejiang/DTID-ZJU01/2013 (H7N9)) (UniProt M9TI86); test: SEC-MALS
[2] = target: Influenza A/Zhejiang/DTID-ZJU01/2013 (H7N9) polymerase heterotrimer (influenza A/Zhejiang/DTID-ZJU01/2013 (H7N9)) (UniProt M9TI86); test: cryo-EM structure

“Influenza A/Zhejiang/DTID-ZJU01/2013 (H7N9) polymerase heterotrimer (from UniProt M9TI86;M9TLW3;X5F427) (complex)” showed a stoichiometry N [1] of 2 and a stoichiometry N [2] of 2.
